Test results as given in patent US20100298539A1 (ALLIGATOR BIOSCIENCE, published 2010).

B1: human C5a receptor (C5aR) (receptor)
chain: MDSFNYTTPDYGHYDDKDTLDLNTPVDKTSNTLRVPDILALVIFAVVFLVGVLGNALVVWVTAFEAKRTINAIWFLNLAVADFLSCLALPILFTSIVQHHHWPFGGAACSILPSLILLNMYASILLLATISADRFLLVFKPIWCQNFRGAGLAWIACAVAWGLALLLTIPSFLYRVVREEYFPPKVLCGVDYSHDKRRERAVAIVRLVLGFLWPLLTLTICYTFILLRTWSRRATRSTKTLKVVVAVVASFFIFWLPYQVTGIMMSFLEPSSPTFLLLKKLDSLCVSFAYINCCINPIIYVVAGQGFQGRLRKSLPSLLRNVLTEESVVRESKSFTRSTVDTMAQKTQAV
notes: whole, on cells; also called CD88; U937/C5aR cells
B2: human formylated peptide receptor (FPR) (receptor)
chain: METNSSLPTNISGGTPAVSAGYLFLDIITYLVFAVTFVLGVLGNGLVIWVAGFRMTHTVTTISYLNLAVADFCFTSTLPFFMVRKAMGGHWPFGWFLCKFVFTIVDINLFGSVFLIALIALDRCVCVLHPVWTQNHRTVSLAKKVIIGPWVMALLLTLPVIIRVTTVPGKTGTVACTFNFSPWTNDPKERINVAVAMLTVRGIIRFIIGFSAPMSIVAVSYGLIATKIHKQGLIKSSRPLRVLSFVAAAFFLCWSPYQVVALIATVRIRELLQGMYKEIGIAVDVTSALAFFNSCLNPMLYVFMGQDFRERLIHALPASLERALTEDSTQTSDTATNSTLPSAEVELQAK
notes: whole, on cells; also called formyl-peptide-receptor

Legend:
[1] = target: T1, Chemotaxis Inhibitory Protein of Staphylococcus aureus (CHIPS), wildtype, amino acids 1-121 (Staphylococcus aureus, UniProt A6QIG7 29-149); test: competition: CHIPS given iv (0.1 mg/kg) against the binding of FITC labelled anti-CD88 mAb to C5aR on gated blood neutrophils, flow cytometry [B) (cont.]
[2] = target: T1, Chemotaxis Inhibitory Protein of …; test: competition: CHIPS given iv (0.1 mg/kg) against the binding of FITC-fMLP to FPR on gated blood neutrophils, flow cytometry [A) (cont.]

Row | Binder | binding result [1] | binding result [2]
1 | B1 | binds | –
2 | B2 | – | binds
